System: retinoic acid receptor
Assay: Retinoic acid receptor dependent transactivation (retinoic acid β promoter-luciferase reporter)
Format: cell-based
Details: MCF-7 breast cancer cells transfected with reporter plasmid and wild-type or stable (S37A) mutant β-catenin; 9-cis retinoic acid, various doses, 48 hours
Description: FIG. 1 is a histogram depicting the enhancement of retinoic acid receptor-dependent transactivation by β-catenin. Luciferase activity, shown in relative light units, is illustrated for MCF-7 breast cancer cells transfected with the retinoic acid β promoter-luciferase reporter plasmid and a wild-type or a stable (S37A) mutant form of β-catenin (or vector alone, as a control) and treated with the indicated doses of 9-cis retinoic acid for 48 hours.
MCF-7 breast cancer cells were transfected with the retinoic acid β promoter-luciferase reporter plasmid and a wild-type or a stable (S37A) mutant form of β-catenin (see Orford et al., J. Biol. Chem. 272:24735-24738, 1997), and treated with various doses of 9-cis retinoic acid for 48 hours. The results, presented in FIG. 1, illustrate the activity of the reporter, measured in relative light units.

B1: β-catenin: cytoplasmic protein, expressed in cells by transfection as wild-type or stable (S37A) mutant form (protein, UniProt P35222 2-781, looked up)
Catenin beta-1: ATQADLMELDMAMEPDRKAAVSHWQQQSYLDSGIHSGATTTAPSLSGKGNPEEEDVDTSQVLYEWEQGFSQSFTQEQVADIDGQYAMTRAQRVRAAMFPETLDEGMQIPSTQFDAAHPTNVQRLAEPSQMLKHAVVNLINYQDDAELATRAIPELTKLLNDEDQVVVNKAAVMVHQLSKKEASRHAIMRSPQMVSAIVRTMQNTNDVETARCTAGTLHNLSHHREGLLAIFKSGGIPALVKMLGSPVDSVLFYAITTLHNLLLHQEGAKMAVRLAGGLQKMVALLNKTNVKFLAITTDCLQILAYGNQESKLIILASGGPQALVNIMRTYTYEKLLWTTSRVLKVLSVCSSNKPAIVEAGGMQALGLHLTDPSQRLVQNCLWTLRNLSDAATKQEGMEGLLGTLVQLLGSDDINVVTCAAGILSNLTCNNYKNKMMVCQVGGIEALVRTVLRAGDREDITEPAICALRHLTSRHQEAEMAQNAVRLHYGLPVVVKLLHPPSHWPLIKATVGLIRNLALCPANHAPLREQGAIPRLVQLLVRAHQDTQRRTSMGGTQQQFVEGVRMEEIVEGCTGALHILARDVHNRIVIRGLNTIPLFVQLLYSPIENIQRVAAGVLCELAQDKEAAEAIEAEGATAPLTELLHSRNEGVATYAAAVLFRMSEDKPQDYKKRLSVELTSSLFRTEPMAWNETADLGLDIGAQGEPLGYRQDDPSYRSFHSGGYGQDALGMDPMMEHEMGGHHPGADYPVDGLPDLGHAQDLMDGLPPGDSNQLAWFDTDL
  activity of the reporter (luciferase activity, relative light units): augment the activity of the reporter
